Source: patent US20250270315A1 (ELPISCIENCE SUZHOU BIOPHARMA, published 2025)

What was measured:
[1] = target: T1, human SIRPβ ECD recombinant protein (6×His tagged) (human, UniProt O00241 30-371); assay: ELISA, hSIRPβ ECD
T1 construct: extracellular domain; Bought from Sino Biological; also called hSIRPβ ECD; not shown: 6×His tag
Description: (§1) Binding activity of the purified chimeric antibodies against SIRPβ and SIRPBI was detected by ELISA assay using recombinant proteins of human SIRPβ ECD (FIGS. 3A and 3B), human SIRPBI ECD (FIGS. 3D and 3E) and FACS assay using CHOK 1 cells stably expressing human SIRPB (FIG. 3C).

[2] = target: T2, human SIRPβ stably expressed on CHOK1 cells (human, UniProt O00241 30-398); assay: FACS, CHOK1-hSIRPβ cells
T2 construct: whole, on cells; also called CHOK1-human SIRPB; CHOK1-hSIRPβ
Description: as §1

[3] = target: T3, full length human SIRPα v1 stably expressed on CHOK1 or 293F cells (human, UniProt P78324 31-504); assay: FACS, CHOK1-hSIRPα v1 cells
T3 construct: whole, on cells; also called CHOK1-human SIRPα v1; CHOK1-hSIRPα v1
Description: (§2) All the humanized antibodies as tested were confirmed to retain the similar activity as the parental antibody of 025c to bind to SIRP family members.

[4] = target: T4, human SIRPγ stably expressed on 293F cells (human, UniProt Q9P1W8 29-387); assay: FACS, 293F-human SIRPγ cells
T4 construct: whole, on cells

[5] = target: T5, Human SIRPα v1 (antigen of the Octet and Biacore affinity measurements) (human, UniProt P78324 31-370, limits assumed); assay: BLI (Octet), 1:1 binding model
Procedure: The purified chimeric antibodies were characterized for binding affinity against human SIRPα v1, human SIRPα v2 using Bio-Layer Interferometry technology (Octet system). The association and dissociation curves were fit with 1:1 binding model, and the Ka/Kd/KD values for each antibody were calculated.

[6] = target: T5, Human SIRPα v1 (antigen of the Octet …); assay: SPR (Biacore), 1:1 binding model
Procedure: The humanized antibodies were characterized for binding affinity against human SIRPα v1, human SIRPα v2 using Surface Plasmon Resonance technology (Biacore system). The association and dissociation curves were fit with 1:1 binding model, and the Ka/Kd/KD values for each antibody were calculated.

[7] = target: T1, human SIRPβ ECD recombinant protein …; assay: ELISA, recombinant human SIRPβ ECD
Description: as §1

[8] = target: T6, C57BL/6 mouse SIRPα ECD recombinant protein (6×His tagged) (C57BL/6 mouse, UniProt P97797 32-373); assay: ELISA, recombinant C57BL/6 mouse SIRPα ECD
T6 construct: extracellular domain; Bought from Biointron; not shown: 6×His tag
T6 sequence (looked up): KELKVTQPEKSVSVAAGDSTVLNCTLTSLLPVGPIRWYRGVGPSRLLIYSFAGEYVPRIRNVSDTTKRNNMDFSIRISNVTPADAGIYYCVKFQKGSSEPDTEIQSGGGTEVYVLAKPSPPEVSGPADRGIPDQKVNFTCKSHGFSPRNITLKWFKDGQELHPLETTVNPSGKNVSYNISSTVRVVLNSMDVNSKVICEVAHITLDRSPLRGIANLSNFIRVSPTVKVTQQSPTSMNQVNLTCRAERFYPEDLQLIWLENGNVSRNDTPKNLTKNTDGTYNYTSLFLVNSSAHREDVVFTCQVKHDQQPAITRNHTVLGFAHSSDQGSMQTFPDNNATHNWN
Description: Species cross reactivity of purified chimeric antibodies was detected by ELISA assay using recombinant protein of C57BL/6 mouse SIRPα ECD (FIG. 5A) and FACS assay using CHOK 1 cells stably expressing cyno SIRPα (FIGS. 5B and 5C). All antibodies as tested bind to cyno SIRPα at different levels but have no species cross reactivity against C57BL/6 mouse SIRPα.

[9] = target: T2, human SIRPβ stably expressed on CHOK1 …; assay: FACS, CHOK1 cells stably expressing human SIRPβ
Description: as §2

[10] = target: T2, human SIRPβ stably expressed on CHOK1 …; assay: FACS, CHOK1-hSIRPβ cells (columns c6 and c7 read as swapped)
Description: as §2

[11] = target: T3, full length human SIRPα v1 stably …; assay: competitive FACS, mFc-CD47 ECD on CHOK1-human SIRPα v1 cells
Method in brief: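 Antibody co-incubated with mFc-tagged human CD47 ECD on CHOK1 cells stably expressing human SIRPα v1 or v2; dye-labeled anti-mouse Fc secondary added, 37 °C for 1 h. Fluorescence intensity read; blocking ratio derived from inhibition of CD47 ECD binding to SIRPα-expressing cells.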

T3 sequence (P78324 31-504): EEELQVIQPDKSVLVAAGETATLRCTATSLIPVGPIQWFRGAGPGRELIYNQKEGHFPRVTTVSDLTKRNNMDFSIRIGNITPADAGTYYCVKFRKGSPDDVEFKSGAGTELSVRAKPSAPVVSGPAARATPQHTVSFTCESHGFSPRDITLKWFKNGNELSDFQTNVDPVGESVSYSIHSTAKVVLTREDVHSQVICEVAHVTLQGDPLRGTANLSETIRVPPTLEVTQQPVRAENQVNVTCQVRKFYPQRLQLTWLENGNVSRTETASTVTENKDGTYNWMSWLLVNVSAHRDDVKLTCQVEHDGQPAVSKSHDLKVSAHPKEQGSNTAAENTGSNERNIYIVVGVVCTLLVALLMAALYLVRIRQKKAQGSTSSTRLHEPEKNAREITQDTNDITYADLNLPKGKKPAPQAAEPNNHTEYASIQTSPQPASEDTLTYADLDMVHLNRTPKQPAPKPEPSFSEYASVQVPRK
T2 sequence (O00241 30-398): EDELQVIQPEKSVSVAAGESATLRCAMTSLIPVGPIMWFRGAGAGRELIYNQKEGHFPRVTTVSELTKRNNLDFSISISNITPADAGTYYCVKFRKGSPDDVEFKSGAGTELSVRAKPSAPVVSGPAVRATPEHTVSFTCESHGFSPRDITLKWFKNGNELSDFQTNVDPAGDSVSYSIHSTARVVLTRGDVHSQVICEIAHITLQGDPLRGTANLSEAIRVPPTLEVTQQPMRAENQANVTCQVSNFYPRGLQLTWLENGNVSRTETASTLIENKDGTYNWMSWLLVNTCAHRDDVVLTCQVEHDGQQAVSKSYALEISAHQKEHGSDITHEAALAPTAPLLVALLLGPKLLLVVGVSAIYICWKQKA
T1 sequence (O00241 30-371): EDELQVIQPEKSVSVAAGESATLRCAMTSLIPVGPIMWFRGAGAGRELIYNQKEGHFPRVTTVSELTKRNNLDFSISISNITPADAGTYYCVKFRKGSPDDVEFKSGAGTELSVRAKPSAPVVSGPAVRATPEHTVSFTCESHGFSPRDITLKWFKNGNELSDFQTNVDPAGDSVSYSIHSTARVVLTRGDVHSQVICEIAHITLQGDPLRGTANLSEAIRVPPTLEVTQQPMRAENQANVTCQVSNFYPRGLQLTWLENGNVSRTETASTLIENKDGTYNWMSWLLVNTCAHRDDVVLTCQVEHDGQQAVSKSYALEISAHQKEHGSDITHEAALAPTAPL
T5 sequence (P78324 31-370 limits assumed): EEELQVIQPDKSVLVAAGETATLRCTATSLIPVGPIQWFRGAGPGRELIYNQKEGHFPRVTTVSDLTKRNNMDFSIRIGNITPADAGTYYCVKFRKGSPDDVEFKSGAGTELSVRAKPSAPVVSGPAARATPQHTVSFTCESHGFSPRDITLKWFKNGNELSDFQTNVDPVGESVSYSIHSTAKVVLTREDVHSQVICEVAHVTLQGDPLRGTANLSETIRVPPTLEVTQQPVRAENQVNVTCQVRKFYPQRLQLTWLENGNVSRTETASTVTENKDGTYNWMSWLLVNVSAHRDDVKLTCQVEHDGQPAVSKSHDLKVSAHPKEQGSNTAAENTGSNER
T4 sequence (Q9P1W8 29-387): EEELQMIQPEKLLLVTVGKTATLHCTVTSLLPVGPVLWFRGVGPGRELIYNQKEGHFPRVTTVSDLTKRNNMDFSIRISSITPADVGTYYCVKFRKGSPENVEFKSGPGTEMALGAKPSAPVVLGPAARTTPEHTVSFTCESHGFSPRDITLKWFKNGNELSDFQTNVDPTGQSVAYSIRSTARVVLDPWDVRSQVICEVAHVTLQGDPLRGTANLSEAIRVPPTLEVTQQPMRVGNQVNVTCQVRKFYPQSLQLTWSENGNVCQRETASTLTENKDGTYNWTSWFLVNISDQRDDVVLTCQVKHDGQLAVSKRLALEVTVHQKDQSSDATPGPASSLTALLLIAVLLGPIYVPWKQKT

- EC50 [1]: 0.04 nM
- TOP OD450 [1]: 3.1 OD450
- EC50 [2]: 0.38 nM
- TOP MFI [2]: 10900 MFI
- EC50 [3]: 1.22 nM
- TOP MFI [3]: 64700 MFI
- EC50 [4]: 0.11 nM
- TOP MFI [4]: 3220 MFI
- Kd [5]: 2.46 nM
- koff [5]: 0.00156 s⁻¹
- kon [5]: 636000 M⁻¹ s⁻¹
- Kd [6]: 1.53 nM
- koff [6]: 0.000924 s⁻¹
- kon [6]: 602000 M⁻¹ s⁻¹
- EC50 (read off the curve) [7]: ~0.04 nM
- binding result [8]: no binding
- EC50 (read off the curve) [9]: ~0.7 nM
- EC50 [10]: 0.65 nM
- TOP MFI [10]: 72300 MFI
- IC50 [11]: 0.4 nM
- TOP blocking (%) [11]: 97.6%
B1: 025c (antibody, V domains shown)
VH: EVQLQQSGAELVKPGASVKLSCTASGFNIKDYYMHWVKQRTEQGLEWIGRIDPEDGETKYAPKFQGKATITADTSSNTAYLQLSSLTSEDTAVYYCDRGLAYWGQGTLVTVSA
VL: QIVLTQSPAIMSASPGEKVTLTCSASSSVSSSYLYWYQQKPGSSPKLWIYSTSNLASGVPARFSGSGSGTSYSLTISSMEAEDAASYFCHQWSSYPYTFGGGTKLEIK
notes: also called chimeric antibody 025c; parental antibody of 025c
